Test results published in the DeepSol protein solubility set.

assay: soluble on expression in E. coli; label from the status in PepcDB or PDB records

With “MERHGSELQGEVVFTTTSTANNNVKRAVEYFEDDNQDDALTSTSSGNSTQKESSPFTDFDDVPPPPVAPETPAPAQNRRESASPERQFLDESHLGGIGSPLSQSTRLDETFIEEYSIELDTSGNSRNNISSAASPGPKSPFDDDFTDTAAPVAPPPAPTKAAEEYRRQPHQNPFDEEEEEESQFGGGTLSGRDPFDEDSGNSNENQLREKKLHKKEQLAHRLSSSSEEIVEASIHEDEPIVMAQIPEEKPKPKAIPAFDNAYDADFDNSPPLHHYSAVHLETGLSPLEEAQRALRANRARHKPSNVSLAEEAKLAARQRYSNASDIRREEEEEVVEEDPAVVVPVLRKDLEVEEAPKSVRPPRYRKSREIEEPVVVDRFVEEEVDEKEDIDAIFEKYRKVRKDIFEKNGVENLKNLNFFRTSVSADPKSHTPILMADEYKEPQKQVPAPVVVAQESPILKRRNSLVPSRISGRQSTRRSVTSVRSMRGKRKTRAIPEFFDLTRHQNIRLRAPATKKKRISLHRVEDTEAVVELLNGQKVEVACRSDVISRDVFSLIVQNMNINEHVFFGLSFLRDGEHYFIEDHQRLEKFAPSGWKSVARVGVKVPYVLHLRFKFYPQILDFIKTDVTMNELYLQCRRDVLEERIQPKRDAAFELAALALQAEFGNRPPPVITDYFDIQHYLPKKYSSFEDQSRLKNILAELHGHYAGTRISEAKHKYIQICQRHPDFGAHVHRVFRTKPTSAHGASPFDPDTGSSLWIGIMPRGISIYEQQGGAREVIAEHVWPQTQTLQFDKKRFVIVAVGAHDEQIESTFYTDHHSKSSYFVRFAASQHRWMMKMRQWKSTLRHENTIQAMPDVIVEGQTIPPAPIRQGLEESPPSTPLLASADQIFAKMSVSQEKPAANRPAELPPPAPSSKFAAQYDTVDEGIVCDSQAENFERVDSTDNGNVTPRGMQFDILLVKDPANGLGLTLVDGNLNGVPGVYVKLVADNGAGMKAIKPKWDILTPCDSTQIFASQNQIFPSVSAEMLASAGRKKSFTSSSGDLLNAPNRTNGQSRTPPAPRKAANRRQRAVSDFGAIGDALPTLDGDNLINIKAISGLHLDESDEEKGEYRLPTTSMYAFDRDDDLQASIKESKKPAPEPKSGELRKYRYARRSNLEIAEEIEEEAVESSDDDGQIDEGKRVIDVELDRNENGSLGVQIASLSGRVCIKQLTSEPAISHPDIRVGDVLLYVNGIAVEGKVHQEVVAMLRGGGDRVVLGVQRPPPAYSDQHHASSTSASAPLISVMLLKKPMATLGLSLAKRTMSDGIFIRNIAQDSAASSEGTLRVGDRLVSLDGEPVDGFTPATILEKLKLVQGPVQITVTREQTA” as the sequence, how does the “soluble on expression in E. coli” value read?
Its value is “not soluble”.

For “MGSDKIHHHHHHMSQHRDAAFLTAKSWQDLPASVPFRLCCIERIDETHDVVTFRFEAAGEPVRFSYKPGQFITLLLEIGGEPHSRAYTLSSSPSRPYSISITVKRVEGGKVSNYLIDNLRPGHALDAMGPSGSFNLVDIPADRYLFLSAGCGITPMFSMSRWLTDTRVGADITFVHSARSVDDLIFAPKLESMANNHSGFRLGYVIEQGNCPDWPYAPVLPGRLTLSGLDSLVSDWRERTLYVCGPEAYMAAVEAMVRDAGFAMSRFHKESFGKPGAPVKSSGQGFMLKVGDKLHPLGESGLLLEGIEALKLPIIAACRSGVCGACKCQVLEGDVERLSEMTLTEEDKANGMVLACSARALSNISLKL”, which “soluble on expression in E. coli” value is on record?
Its value is “not soluble”.

Which “soluble on expression in E. coli” value does the source give for “MKNIATGGVLERIRRLAPPHVTAPFRTVAEWREWQLAEGQKRCEEINRQNRQLRVEKILNRSGIQPLHRKCSFANYQVQNDGQRYALSQAKSIADELVTGCTNFAFSGKPGTGKNHLAAAIGNRLLKDGQTVIVVTVADVMSALHASYDDGQSGEKFLRELCEVDLLVLDEIGIQRETKNEQVVLHQIVDRRTASMRSVGMLTNLNYEAMKTLLGERIMDRMTMNGGRWVNFNWESWRPNVGQPGIEK” here?
The value was “soluble”.

With “MNNMKKYLSLCIMLLCLCSTVMAQQEKVVVKGVVTDEAKEPLIGVNVTVKDMPGLGSITDMNGHYSITMEPYRQLVFTYIGYESKEVMVKEQRTINVVMKESVTRAVDEVVITGTGVQRKLTQTGAITTVDVGELKRNPSSSIVNALAGNVPGIMARQTSGQPGKNISEFWIRGISTFGANSSAYVLVDGFERSMDEINIEDIETFTVLKDASATAIYGSKGANGVVLITTKRGKAGKIKIDAKVETTYNTRTVLQSSKTDLLMPA” as the sequence, how does the “soluble on expression in E. coli” value read?
Its value is “not soluble”.

With “MGSDKIHHHHHHMTTKYQTIISNIEQDIQKQRLKKGDKLPSIRVLSKVYYCSKDTVQRALLELKYRHLIYAVPKSGYYVLGNVSMPDNVLNLSLEDYNNMAYEDFRLCLNEALSAKDKYLFHYYHKTEGLEELREALLLYLAENSVYSNKDQLLITSGTQQALYILSQMPFPNTGKTILLEKPTYHRMEAIVAQLGLPYQTISRHFNGLDLELLESLFQTGDIKFFYTISRFSHPLGLSYSTKEKEAIVRLAQRYQVYILEDDYLGDFVKLKEPPIHYYDTHHRIIYLKSFSMSVFPALRIGALVLPSGLKPHFLTQKSLIDLDTNLLMQKALALYLENGMFQKNLRFIKRYLKQRERQLALFLKQNCPDIHYQLTPTHLVIDYTTSDSYRNFTLDKSDRIIITGKKRYLSITINQQIQSKLNSLIKNTCGKSN” as the sequence, how does the “soluble on expression in E. coli” value read?
The value was “not soluble”.

With “MYKRYVAQIIFALTILISAPSWAETEETGPKLAYFTLEPDLTTNFYTKGKKLGYVQVRIDIMVMSQQDLAIVEHHQPLIRDAVIELLGKQTEDTIKSLSGREDLRKTLVKELNETLLPETGKTVIADLLFTKYLYQ” as the sequence, how does the “soluble on expression in E. coli” value read?
The value was “not soluble”.

With “MSVDSLPTLFQWARDNLLKEEALAISALEELPIHLFPEMFKVAFTDRHTKVLIAMVSAWPFPCLPVGTLIEDPHLETLKAVLDGLNVLVTGKVHSSRCKLRVLDLRRNVHHDFWSIQTGSHEDNCPAQIVAQKQPVETCPNPRREIPFMVVTDFELTQESFDEWTIYLMQWIQERKSSIHLCCRKLNSCASPVSNVIEIFKLVDLNCILELQLSQWWPEVLEELDPYLEGMNNLHTLMLEGLKPFRFTACEEDQEDEWQSTLPSLLSNFGSLQNLYLNDIYLLEDSLDKWLGCLKTPLKTLSITDCPRLLQSDFECLPNCPNICKLKHLNLNALFLSDVGYEIPGLILEKVTSTLQILELERCGMTDPHFKALMPALSKCSQLLKVSFCHNDISLRVLKTLLCHTAKLSQLTQELYPAPQECYEDYKILKDRFKKLCPELLNILKAKRQPKKVSFTTQTCLKCLHSCHYYYNLEATDCLCQCICQ” as the sequence, how does the “soluble on expression in E. coli” value read?
Its value is “not soluble”.

With “MNKNLHPIFAKRIQQVLDENGWSMADLSRRVMLSHTSVRKWASGTSVASGERLKRLSAVTGRPEYWFFMEPGDESEGERAEPKPRVLDEKEETLLSLFNQLPEAEKLRVILHTKAVLQEMDLLKNNVFDLINDLKK” as the sequence, how does the “soluble on expression in E. coli” value read?
The value was “not soluble”.

Which “soluble on expression in E. coli” value does the source give for “TETTSFLITKFSPDQQNLIFQGDGYTTKEKLTLTKAVKNTVGRALYSSPIHIWDRETGNVANFVTSFTFVINAPNSYNVADGFTFFIAPVDTKPQTGGGYLGVFNSAEYDKTTQTVAVEFDTFYNAAWDPSNRDRHIGIDVNSIKSVNTKSWKLQNGEEANVVIAFNAATNVLTVSLTYPN” here?
Its value is “soluble”.

With “RVMLRQTQYLNEAIKLMASKNLSVPFGMDCKDEYGDVARELEKTRRQLHDVIQMQINASDELATLTEVMTLSMSETKESA” as the sequence, how does the “soluble on expression in E. coli” value read?
The value was “not soluble”.

With “MGSDKIHHHHHHMTTHLTGTRDEWLTARRALLDAEKTLTRHSDALARRREALPWVRVDKTYRFDTEHGAATLDDLFDGRSQLLVYHFMFGPDYKAGCPSCSALADGFDGFAVHLANHDVTLAAVSRAPLAKLLAYRQRMGWRFPWASSEGGAFNFDFNVSFTEAQQRTGDVEYNYARAAHAMDVDPPPAAVAQFAATCGTDAATYARDRPGMSAFVREDGVVYHTYSTYARGLDALWGMYAWLDRAPLGRNETGVWWRRHDEYARD” as the sequence, how does the “soluble on expression in E. coli” value read?
The value was “not soluble”.

For “MSWIERIKSNITPTRKASIPEGVWTKCDSCGQVLYRAELERNLEVCPKCDHHMRMTARNRLHSLLDEGSLVELGSELEPKDVLKFRDSKKYKDRLASAQKETGEKDALVVMKGTLYGMPVVAAAFEFAFMGGSMGSVVGARFVRAVEQALEDNCPLICFSASGGARMQEALMSLMQMAKTSAALAKMQERGLPYISVLTDPTMGGVSASFAMLGDLNIAEPKALIGFAGPRVIEQTVREKLPPGFQRSEFLIEKGAIDMIVRRPEMRLKLASILAKLMNLPAPNPEAPREGVVVPPVPDQEPEALEHHHHHH”, which “soluble on expression in E. coli” value is on record?
The value was “not soluble”.

With “MSLSDDSTFGDATFVVLDFETTGLDPQVDEIIEIGAVKIQGGQIVDEYHTLIKPSREISRKSSEITGITQEMLENKRSIEEVLPEFLGFLEDSIIVAHNANFDYRFLRLWIKKVMGLDWERPYIDTLALAKSLLKLRSYSLDSVVEKLGLGPFRHHRALDDARVTAQVFLRFVEMMKKEGHHHHHH” as the sequence, how does the “soluble on expression in E. coli” value read?
The value was “soluble”.

For “MSRRSRSRSRSPKRDREERKRREDRDRDRERKRDRKDRERKRRHRSSSSEGSQAEPHQLGSIFREERRRRERNESPKLPPPPPPPPSDPPVDTSIPFDVSTLNEPTKKWLEEKIVEQVSARVHQLEAMMAEKATSARNEMEKMLRAQIEAEMAVELAECKKRDEESRKKCKQLEAELERKVLEAEESRKKFEEDRLAMLEQKSQLERDRAELARQKSDMKKNEQQAILNKSGNSRAPIKFKFGK”, which “soluble on expression in E. coli” value is on record?
The value was “not soluble”.

Which “soluble on expression in E. coli” value does the source give for “MLKFRTVHGGLRLLGIRRTSTAPAASPNVRRLEYKPIKKVMVANRGEIAIRVFRACTELGIRTVAIYSEQDTGQMHRQKADEAYLIGRGLAPVQAYLHIPDIIKVAKENNVDAVHPGYGFLSERADFAQACQDAGVRFIGPSPEVVRKMGDKVEARAIAIAAGVPVVPGTDAPITSLHEAHEFSNTYGFPIIFKAAYGGGGRGMRVVHSYEELEENYTRAYSEALAAFGNGALFVEKFIEKPRHIEVQILGDQYGNILHLYERDCSIQRRHQKVVEIAPAAHLDPQLRTRLTSDSVKLAKQVGYENAGTVEFLVDRHGKHYFIEVNSRLQVEHTVTEEITDVDLVHAQIHVSEGRSLPDLGLRQENIRINGCAIQCRVTTEDPARSFQPDTGRIEVFRSGEGMGIRLDNASAFQGAVISPHYDSLLVKVIAHGKDHPTAATKMSRALAEFRVRGVKTNIAFLQNVLNNQQFLAGTVDTQFIDENPELFQLRPAQNRAQKLLHYLGHVMVNGPTTPIPVKASPSPTDPVVPAVPIGPPPAGFRDILLREGPEGFARAVRNHPGLLLMDTTFRDAHQSLLATRVRTHDLKKIAPYVAHNFSKLFSMENWGGATFDVAMRFLYECPWRRLQELRELIPNIPFQMLLRGANAVGYTNYPDNVVFKFCEVAKENGMDVFRVFDSLNYLPNMLLGMEAAGSAGGVVEAAISYTGDVADPSRTKYSLQYYMGLAEELVRAGTHILCIKDMAGLLKPTACTMLVSSLRDRFPDLPLHIHTHDTSGAGVAAMLACAQAGADVVDVAADSMSGMTSQPSMGALVACTRGTPLDTEVPMERVFDYSEYWEGARGLYAAFDCTATMKSGNSDVYENEIPGGQYTNLHFQAHSMGLGSKFKEVKKAYVEANQMLGDLIKVTPSSKIVGDLAQFMVQNGLSRAEAEAQAEELSFPRSVVEFLQGYIGVPHGGFPEPFRSKVLKDLPRVEGRPGASLPPLDLQALEKELVDRHGEEVTPEDVLSAAMYPDVFAHFKDFTATFGPLDSLNTRLFLQGPKIAEEFEVELERGKTLHIKALAVSDLNRAGQRQVFFELNGQLRSILVKDTQAMKEMHFHPKALKDVKGQIGAPMPGKVIDIKVVAGAKVAKGQPLCVLSAMKMETVVTSPMEGTVRKVHVTKDMTLEGDDLILEIE” here?
The value was “not soluble”.

With “MTTQFKPELLSPAGSLKNMRYAFAYGADAVYAGQPRYSLRVRNNEFNHANLKIGIDEAHSLGKKFYVVVNIAPHNSKLKTFIKDLQPVIDMKPDALIMSDPGLIMLVRENFPNIDIHLSVQANAVNWATVKFWKQMGLTRVILSRELSIDEIAEIRQQVPDIELEIFVHGALCMAYSGRCLLSGYINKRDPNQGTCTNACRWEYKMEEGTTDDVGNIVPKIDPAQQIEVKNVAPTLGEGAVTDKVFLYTESQKPDEQMTAFEDKHGTYFMNSKDLRAVQHVEKLTALGVHSLKIEGRTKSFYYCARTAQVYRKAIDDAAAGKPFDESLMDTLESLAHRGYTEGFLRRHTHDEYQNYEYGYSISDRQQFVGEFTGKRNEQGMAEVAVKNKFLLGDNVEMMTPQGNINFKIEKMLNRKNETVDAALGDGHFVFLNVPQDINLNYALLMRNLVNTNTRNPHSN” as the sequence, how does the “soluble on expression in E. coli” value read?
The value was “not soluble”.
